Test results from paper PMC3017119, “Structural Basis for the Recognition of Cellular mRNA Export Factor REF by Herpes Viral Proteins HSV-1 ICP27 and HVS ORF57” (PLoS Pathogens, 2011).

Legend:
GST-REF2-I = GST-REF2-I pull down of 35S-radiolabelled ICP27 fragments; format: binding, murine; conditions: 35S-radiolabelled protein from rabbit reticulocytes, glutathione beads, RB100 buffer pH 7.5, 10 µg/ml RNAse A; SDS-PAGE, PhosphoImage
Excerpt: To confirm the position of REF-binding domains within ICP27 and ORF57 and to minimise the size of constructs for more detailed NMR mapping, a series of fragments derived from HSV-1 ICP27 were screened for binding to GST-REF2-I using pull down assays (Fig. 1). […] The REF-binding fragment of ORF57 aa 8–120 identified previously similarly interacted with the same fragments of REF (Fig. 1D).
Figure 1 Identification of regions for the interactions between REF and ICP27/ORF57. (A) Subdivision of ICP27, ORF57 and REF2-I in fragments. […] (C) Fusion of the ICP27^103–138 peptide to GST allows a specific pull down of REF, REF^1–155 (NM) and REF^54–155 (Δ53) and a very weak pull down of the REF^1–70 (N); no interaction is detected with the control Ras protein. (D) Same pull down assay as panel C but using GST fusion of ORF57 aa 8–120 in place of ICP27.
GST or GST protein fusions were first immobilised on 30 µl slurry glutathione-coated beads (GE Healthcare) before 8 µl ^35S-radiolabelled proteins synthesised in rabbit reticulocytes (Promega) were added to the binding reactions in RB100 buffer (25 mM HEPES pH 7.5/100 mM KOAc/10 mM MgCl2/1 mM DTT/0.05% Triton X-100/10% glycerol) in presence of 10 µg/ml RNAse A. Washed and eluted protein complexes were resolved on 15% SDS-PAGE stained with Coomassie blue and analysed by PhosphoImage. […]

[1] = system: REF^156–218 (REF2-I C-terminal domain); assay: NMR 1H-15N correlation spectra of 15N-labelled REF^156–218 with added viral protein constructs; format: binding, murine; conditions: 2-fold excess of viral construct; 15N-HSQC

B1: ICP27^1–138: recombinant fragment aa 1–138 of HSV-1 ICP27 (protein)
chain: MATDIDMLIDLGLDLSDSDLDEDPPEPAESRRDDLESDSSGECSSSDEDMEDPHGEDGPEPILDAARPAVRPSRPEDPGVPSTQTPRPTERQGPNDPQPAPHSVWSRLGARRPSCSPEQHGGKVARLQPPPTKAQPAR
modifications: 35S-radiolabelled
notes: recombinant fragment aa 1–138 of HSV-1 ICP27
For B1, the “Binding to GST-REF2-I in pull down” value (GST-REF2-I) was “essentially the same as that of the full-length protein” and the “Changes in 1H-15N correlation spectra of 15N-REF^156–218 upon addition” value [1] was “No significant changes”.
